OD (PE binding ELISA) data for 29 molecules are collected here from patent US20240409645A1.

T1: mouse IL-2Rα (mouse) (UniProt P01590)
T1 sequence (looked up): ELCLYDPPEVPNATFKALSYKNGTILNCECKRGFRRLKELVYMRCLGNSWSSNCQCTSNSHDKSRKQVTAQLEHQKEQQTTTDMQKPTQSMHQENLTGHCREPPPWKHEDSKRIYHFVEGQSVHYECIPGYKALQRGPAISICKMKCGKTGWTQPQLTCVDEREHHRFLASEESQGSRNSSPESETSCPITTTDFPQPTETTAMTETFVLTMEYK

T2: mouse IL-2Rγ (mouse) (UniProt P34902)
T2 sequence (looked up): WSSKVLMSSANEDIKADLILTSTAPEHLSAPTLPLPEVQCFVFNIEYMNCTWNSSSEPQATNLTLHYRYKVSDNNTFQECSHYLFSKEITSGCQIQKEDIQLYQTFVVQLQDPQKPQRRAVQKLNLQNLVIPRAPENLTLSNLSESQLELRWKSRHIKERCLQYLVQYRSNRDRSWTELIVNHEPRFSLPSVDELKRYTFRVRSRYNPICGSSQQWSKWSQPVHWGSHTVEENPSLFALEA

B1: 3-MP01E03 (VHH)
VHH: QVQLVESGGGLVQAGGSLRLSCTASGRTLSSYSMAWFRQAADKGREFVTAISSSGVVTHVLDSVKGRFTISRDNAKNTVYLQMNSLQPEDTALYFCAGTASSYSTYEANYNYWGQGTLVTVSS
B2: FJ1427_P035MP01B01 (VHH)
VHH: EVQLVESGGGWVQAGDSLRLSCAASGRTFRNYVMGWFRQVPGKEREFLSVITSLGGTVYADSVANRFTISRDNPKDTVYLQMDSLKPEDTAVYYCAADRGPARYISASDVDYWGQGTQVTASS
B3: FJ1427_P035MP01D04 (VHH)
VHH: QVQLVESGGGWVQPGDSLRLSCAASGRSFRNYVMGWFRQVPGKEREFLSVITWLGGTLDADSVADRFTISRDNSKNTVYLQMDSLKPEDTAVYYCAADRGPARYISASDVDYWGQGTQVTVSS
B4: 6-MP01G05 (VHH)
VHH: QVQLQESGGGLVQAGGSLRLSCAASGRTFSSYAMGWFRQAPGKEREFVAVISWNVDNTEYTDSVKGRFTISRDNDKNMVYLQMNSLKPEDTAVYYCAADSIPLSSDMSPTATEYGYWGQGTQVTVSS
B5: FJ1427_P035MP01A01 (VHH)
VHH: EVQLVESGGGLVQAGDSLRLSCAASGRSFRNYILAWYRQAPGKEREFLAAISWLDGTLYADSVEDRFTISRDNPKNTVHLQMDNLKPEDTAVYYCAADRGPVRPVLAPDVDYWGQGTQVSVSS
B6: FJ1427_P035MP01G03 (VHH)
VHH: QVQLVESGGGLVQAGDSLRLSCAASGRSFRNYILAWYRQAPGKEREFLAAISWLDGTLYADSVEDRFTISRDNPKNTVHLQMDNLKPEDTAVYYCAADQGPVRPVLAPDVDYWGQGTQVTVSS
B7: FJ1427_P035MP01E02 (VHH)
VHH: QVQLVESGGGLVQAGDSLRLSCAASGRSFRNYILAWYRQAPGKEREFLAAISWLDGTLYADSVEDRFTISRDNPKNTVHLQMDNLKPEDTAVYYCAADRGPVRPVLAPDVDYWGQGTQVTVSS
B8: FJ1427_P035MP01E04 (VHH)
VHH: QVQLVESGGGLVQAGDSLRLSCAVSGRSFRNYILAWYRQAPGKEREFLAAISWLDGTFYANSVEGRFTISRDNPKNTVHLQMDGLKPEDTAVYYCAADRGPVRPVLAPDVDYWGQGTQVTVAS
B9: FJ1427_P035MP01H02 (VHH)
VHH: QLQLVESGGGLVQAGDSLRLSCAASGRAFSRYAVGWFRMAPGKGREFVSAINSSGANTYVLDSVKGRFTISRDNDKNTAYLQMDSLQPEDTAVYWCAATSSSYSTYEANYNVWGQGTQVTVSS
B10: 1-MP01H01 (VHH)
VHH: EVQLVESGGGLVQAGGSLRLSCAASGRTFRTHNMGWFRRAPGKEREFVAAISWNVDNTLYADSVKGRFTISRDNGRNMVYLQMNSLKPEDTAVYYCAADNIPLSSDVAATATEYDYWGQGTQVTVSS
B11: FJ1427_P035MP01F02 (VHH)
VHH: QVQLQESGGGLVQAGGSLRLSCAASGRTFRTHNMGWFRRAPGKEREFVAAISWNIDNKLYADSVKGRSTISRDNGGNMVFLQMNSLKPEDTAVYYCAADKIPLSSDVAATATEYDDWGQGTQVTVSS
B12: FJ1427_P035MP01G01 (VHH)
VHH: QVQLQESGGGLVQAGGSLRLSCAASGRTFRTHNMGWFRRAPGKEREFVAAISWNVDNTLYADSVKGRFTISRDNDRNMVYLQMNSLKPEDTAVYFCAADNIPLSSDVRATATEFGYWGQGTRVTVSS
B13: 2-MP01A02 (VHH)
VHH: QVQLVESGGGLVQPGGSLRLSCATSGFTFRNNFMSWVRQAPGKGLEWVSTISYGGESTTYAESVKGRFTISRDNAKNTLYLQMNNLKPEDTAVYYCAKATSYDSIRSGSRGQGTQVTVSS
B14: FJ1427_P035MP01D03 (VHH)
VHH: EVQLVESGGGLVQPGGSLRLSCATSGFTFRNNFMSWVRQAPGEGLEWVSTISYGGESTTYAESVKGRFTISRDNAKNTLYLQMNNLKPEDTAVYYCAKATSYDSIRSGSRGQGTQVTVSS
B15: FJ1427_P035MP01G04 (VHH)
VHH: QVQLVESGGGLVQPGGSLRLSCAASGFTFSNNFMSWVRQAPGKGLEWVSTISYFGDSTRYAESVKGRFTISRDNEKNTLHLQMNNLKPEDTAVYYCAKATSYDSIRSGSRGRGTQVTVSS
B16: FJ1427_P035MP01C03 (VHH)
VHH: EVQLVESGGGLVQPGGSLRLSCATSGFTFRNNFMSWVRQAPGKGLEWVSTISYGGESTTYAESVKGRFTISRDNAKNTLYLQMNNLKPEDTAVYYCAKATSYDSIRSGSRGQGTQVTVSS
B17: 8-MP01C12 (VHH)
VHH: QVQLVESGGGLVQPGGSLRLSCATSGFTFSNNFMSWVRQAPGKGLEFVSTISYGGESTTYAEAVKGRFTISRDNAKNTLYLQMNNLKPEDTAIYYCAKATSYTSIRGAPRGQGTQVTVSS
B18: FJ1427_P035MP01F03 (VHH)
VHH: QVQLVESGGGLVQPGGSLRLSCAASGFTFSNNFMSWVRQAPGKGLEWVSTISYGGESTTYAESVKGRFTISRDNAKNTLYLQMNNLKPEDTAVYYCAKATSYDSVRSGSRGQGTQVTVSS
B19: 07-MP01G08 (VHH)
VHH: EVQLVESGGGLVQAGGSLRLSCAASGRAFSMYNMGWFRQAPGKEREFVAATGWSGANTPYADSVKGRFTISRDNTQNTVYLQMNSLKPEDTATYYCAADSIRLRSDVTRIPLEYDYWGQGTQVTVSS
B20: 5-MP01F05 (VHH)
VHH: EVQLVESGGGLVQAGGSLRLSCAASIRAFTTWSMAWFRQAPGKEREYVARINVSGSVTYYADFVKGRFTISRDNAKKTMYLEMNNLKPEDTALYYCAADRTGVGTNDYNYWGQGTQVTVSS
B21: FJ1427_P035MP04B11 (VHH)
VHH: EVQLVESGGGWVQVGESLRLSCAPSGRTFVSGIMGWFRQAPGKEREFVARIILNNNSTRYIDSVKGRFTISRDSAKNTMYLQMDSLRPEDTAVYYCAARDRYGSGNSLSPSAYDYWGQGTQVTVSS
B22: FJ1427_P035MP04G11 (VHH)
VHH: QVQLVESGGGWVQVGESLRLSCAPSGRTFVSGIMGWFRQAPGEEREFVARIILNNNSTRYTDSVKGRFTISRDSAKNTMYLQMNTLRPEDTAVYYCAARDRYGSGNSLSPSAYDYWGQGTQVTVSS
B23: FJ1427_P035MP04C12 (VHH)
VHH: EVQLVESGGGWVQVGESLRLSCAPSGRTFVSGIMGWFRQAPGKEREFVARIILNNNSTRYIDSVKGRFTISRDSAKNTMYLQMDSLRPEDTAVYYCAARDRYGSGNSLSPSAYDYWGQGTQVTVSS
B24: FJ1427_P035MP04D12 (VHH)
VHH: QVQLVESGGGWVQVGKSLRLSCAPSGRTFVSGIMGWFRQAPGKEREFVARIILNNNSTRYIDSVKGRFTISRDSAKNTMYLQMDSLRPEDTAVYYCAARDRYGSGNSLSPSAYDYWGQGTQVTVSS
B25: FJ1427_P035MP04F11 (VHH)
VHH: QVQLVESGGGWVQVGESLRLSCAPSGRTFVSGIMGWFRQTPGKEREFVARIILNNNSTRYTDSVKGRFTISRDSAKNTLYLQMNTLRPEDTAVYYCAARDRYGSGNSLSPSAYDYWGQGTQVTVSS
B26: FJ1427_P035MP04H11 (VHH)
VHH: QVQLVESGGGWVQVGESPRLSCAPSGRTFVSGIMGWFRQTPGKEREFVARIILNNNSTRYTDSVKGRFTISRDSAKNTMYLQMNTLRPEDTAVYYCAARDRYGSGNSLSPSAYDYWGQGTQVTVSS
B27: FJ1427_P035MP04E12 (VHH)
VHH: QLQLVESGGGWVQVGESLRLSCAPSGRTFASGIMGWFRQAPGKEREFVARIILNNNSTRYTDSVKGRFTISRDSAKNTMYLQMNTLRPEDTAVYYCAARDRYGSGNSLSPSAYDYWGQGTQVTVSS
B28: FJ1427_P035MP04C11 (VHH)
VHH: QVQLVESGGGLVQHGGSLRLSCAASGPTFSRVAVGWFRQVPGKEREFVAVVNRPGSMTKYADSVKGRFNISRDTAKNTVYLQMNSLKPEDTAVYYCAADSVPYGRPYYFTTSAGDYDYWGQGTQVTVSS
B29: FJ1427_P035MP04D11 (VHH)
VHH: EVQLVESGGGLVQAGGSLRLSCAASGRTFGAVAVGWFRQVPGKEREFVAAINRSGSATKYADSVKGRFTISRDNAESPVFLQMNSLKPEDTAVYYCAADSLPYGRPYYFQTSAGEYDYWGQGTQVTVSS

The first assay has as its target T1, mouse IL-2Rα (mouse). In words: ELISA, P.E. on coated antigen. For orientation: In an ELISA, binding on a coated surface is turned into a signal by an enzyme label.
With B1, the OD (PE binding ELISA) was 0.046 OD450 nm.

Take B2: the OD (PE binding ELISA) worked out at 0.046 OD450 nm.

In turn, B3 yielded an OD (PE binding ELISA) of 0.045 OD450 nm.

In turn, B4 had an OD (PE binding ELISA) of 0.046 OD450 nm.

As to B5, the OD (PE binding ELISA) was found to be 0.046 OD450 nm.

B6 yielded an OD (PE binding ELISA) of 0.048 OD450 nm.

For B7, the OD (PE binding ELISA) was found to be 0.046 OD450 nm.

Molecule B8 came in with an OD (PE binding ELISA) of 0.046 OD450 nm.

In the case of B9, the OD (PE binding ELISA) turned out to be 0.047 OD450 nm.

Consider B10, for which the OD (PE binding ELISA) worked out at 0.048 OD450 nm.

In turn, B11 yielded an OD (PE binding ELISA) of 0.046 OD450 nm.

B12 returned an OD (PE binding ELISA) of 0.053 OD450 nm.

Turning to B13, the OD (PE binding ELISA) worked out at 0.046 OD450 nm.

In turn, B14 displayed an OD (PE binding ELISA) of 0.048 OD450 nm.

The molecule B15 returned an OD (PE binding ELISA) of 0.047 OD450 nm.

B16 had an OD (PE binding ELISA) of 0.045 OD450 nm.

Molecule B17 returned an OD (PE binding ELISA) of 0.045 OD450 nm.

B18 displayed an OD (PE binding ELISA) of 0.045 OD450 nm.

For B19, the OD (PE binding ELISA) stood at 0.046 OD450 nm.

Consider B20, for which the OD (PE binding ELISA) stood at 0.046 OD450 nm.

The next assay concerns the target T2, mouse IL-2Rγ (mouse). In words: PE binding ELISA, periplasmic extract on coated protein.
B21 came in with an OD (PE binding ELISA) of 0.047 OD450 nm.

On to B22, for which the OD (PE binding ELISA) came to 0.048 OD450 nm.

Molecule B23 returned an OD (PE binding ELISA) of 0.048 OD450 nm.

The molecule B24 yielded an OD (PE binding ELISA) of 0.054 OD450 nm.

In turn, B25 gave an OD (PE binding ELISA) of 0.049 OD450 nm.

The molecule B26 yielded an OD (PE binding ELISA) of 0.049 OD450 nm.

B27 came in with an OD (PE binding ELISA) of 0.051 OD450 nm.

B28 registered an OD (PE binding ELISA) of 0.047 OD450 nm.

B29: the OD (PE binding ELISA) was 0.048 OD450 nm.
